Patent US20240270840A1 (NECTIN THERAPEUTICS, published 2024)

T1: Human CD112R (PVRIG) (human, UniProt Q6DKI7 41-171, limits assumed)
T1 sequence (looked up): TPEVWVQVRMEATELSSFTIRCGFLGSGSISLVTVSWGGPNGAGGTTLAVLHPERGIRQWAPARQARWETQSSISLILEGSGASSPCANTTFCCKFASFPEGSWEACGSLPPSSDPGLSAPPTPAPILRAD


Key:
Human CD112R (PVRIG) [1] = molecular target: T1, Human CD112R (PVRIG); assay: affinity of glycosylation-motif variants (Table 2; method not named there)
Human CD112R (PVRIG) [2] = molecular target: T1, Human CD112R (PVRIG); assay: binding kinetics to human CD112R (Table 4; scFv variants by paragraph 288)
Human CD112R (PVRIG) [3] = molecular target: T1, Human CD112R (PVRIG); assay: SPR (Biacore); purified full antibody; * limit of the Biacore instrument sensitivity
Human CD112R (PVRIG) [4] = molecular target: T1, Human CD112R (PVRIG); assay: SPR (Biacore); purified full antibody

Binder	Kd (Human CD112R (PVRIG) [2]) [nM]	Relative Kd (against VH0K0) (Human CD112R (PVRIG) [2])	koff (Human CD112R (PVRIG) [2]) [s⁻¹]	kon (Human CD112R (PVRIG) [2]) [M⁻¹ s⁻¹]	Kd (Human CD112R (PVRIG) [4]) [nM]	Relative Kd (against VH0K0 N28T) (Human CD112R (PVRIG) [4])	koff (Human CD112R (PVRIG) [4]) [s⁻¹]	kon (Human CD112R (PVRIG) [4]) [M⁻¹ s⁻¹]	also measured
VH0 N28A Vk0 (antibody, human IgG1, V domains shown, Variant of VH0K0) VH: QVQLQQPGAELVKPGTSVKLSCKASGYAFTSYWINWVKLRPGQGLEWIGDIYPGSYIPNYNEKFKNKATLTVDTSSSTAYMQLTSLASEDSALYYCAGGYFDVWGAGTTVTVSS VL: DIVMTQSPSSLSVSAGEKVTMSCKSSQSLLSSGNQKNYLAWYQQKPGQPPKLLIYGASTRESGVPDRFTGSGSGTDFTLTISSVQAEDLAVYYCQNDHSYPYTFGGGTKLEIK									Kd (Human CD112R (PVRIG) [1]): 0.15 nM; Relative Kd (against VH0Vk0) (Human CD112R (PVRIG) [1]): 0.9
VH0K0 as tested in Table 4 (scFv of VH0K0) (scFv, V domains shown) VH: QVQLQQPGAELVKPGTSVKLSCKASGYNFTSYWINWVKLRPGQGLEWIGDIYPGSYIPNYNEKFKNKATLTVDTSSSTAYMQLTSLASEDSALYYCAGGYFDVWGAGTTVTVSS VL: DIVMTQSPSSLSVSAGEKVTMSCKSSQSLLSSGNQKNYLAWYQQKPGQPPKLLIYGASTRESGVPDRFTGSGSGTDFTLTISSVQAEDLAVYYCQNDHSYPYTFGGGTKLEIK	0.307	1	8.89e-05	290000					
VH11K2 as tested in Table 4 (humanized scFv variant) (scFv, V domains shown, Format as for m33) VH: QVQLVQSGAEVKKPGSSVKVSCKASGYTFTSYWINWVRQAPGQGLEWIGDIYPGSYIPNYNEKFKNRATLTVDTSASTAYMELSSLRSEDTAVYYCAGGYFDVWGQGTTVTVSS VL: DIVMTQSPDSLAVSLGERATINCKSSQSLLSSGNQKNYLAWYQQKPGQPPKLLIYGASTRESGVPDRFTGSGSGTDFTLTISSLQAEDVAVYYCQNDHSYPYTFGQGTKLEIK	0.191	0.62	0.000105	552000					
VH0K1 N28T (antibody, V domains shown) VH: QVQLQQPGAELVKPGTSVKLSCKASGYTFTSYWINWVKLRPGQGLEWIGDIYPGSYIPNYNEKFKNKATLTVDTSSSTAYMQLTSLASEDSALYYCAGGYFDVWGAGTTVTVSS VL: DIVMTQSPDSLSVSLGERATINCKSSQSLLSSGNQKNYLAWYQQKPGQPPKLLIYGASTRESGVPDRFTGSGSGTDFTLTISSLQAEDVAVYYCQNDHSYPYTFGQGTKLEIK									Kd (Human CD112R (PVRIG) [3]): 0.0259 nM; Relative Kd (against VH0K0 N28T) (Human CD112R (PVRIG) [3]): 0.21; koff (Human CD112R (PVRIG) [3]): 8.3e-06 s⁻¹; kon (Human CD112R (PVRIG) [3]): 320000 M⁻¹ s⁻¹
VH9K3 (antibody, V domains shown) VH: QVQLVQSGAEVKKPGSSVKVSCKASGYTFTSYWINWVKLAPGQGLEWIGDIYPGSYIPNYNEKFKNRATLTVDTSASTAYMELSSLRSEDTAVYYCAGGYFDVWGQGTTVTVSS VL: DIVMTQSPDSLAVSLGERATINCKSSQSLLSSGNQKNYLAWYQQKPGQPPKLLIYGASTRESGVPDRFSGSGSGTDFTLTISSLQAEDVAVYYCQNDHSYPYTFGQGTKLEIK					~0.154	1.22	1.06e-05	330000	
VH0K2 N28T (antibody, V domains shown) VH: QVQLQQPGAELVKPGTSVKLSCKASGYTFTSYWINWVKLRPGQGLEWIGDIYPGSYIPNYNEKFKNKATLTVDTSSSTAYMQLTSLASEDSALYYCAGGYFDVWGAGTTVTVSS VL: DIVMTQSPDSLAVSLGERATINCKSSQSLLSSGNQKNYLAWYQQKPGQPPKLLIYGASTRESGVPDRFTGSGSGTDFTLTISSLQAEDVAVYYCQNDHSYPYTFGQGTKLEIK					0.109	0.87	4.34e-05	398000	
VH9K1 (antibody, V domains shown) VH: QVQLVQSGAEVKKPGSSVKVSCKASGYTFTSYWINWVKLAPGQGLEWIGDIYPGSYIPNYNEKFKNRATLTVDTSASTAYMELSSLRSEDTAVYYCAGGYFDVWGQGTTVTVSS VL: DIVMTQSPDSLSVSLGERATINCKSSQSLLSSGNQKNYLAWYQQKPGQPPKLLIYGASTRESGVPDRFTGSGSGTDFTLTISSLQAEDVAVYYCQNDHSYPYTFGQGTKLEIK					0.111	0.87	3.87e-05	350000	
VH0 N28D Vk0 (antibody, human IgG1, V domains shown, Variant of VH0K0 without the N-linked glycosylation motif of heavy chain CDR1) VH: QVQLQQPGAELVKPGTSVKLSCKASGYDFTSYWINWVKLRPGQGLEWIGDIYPGSYIPNYNEKFKNKATLTVDTSSSTAYMQLTSLASEDSALYYCAGGYFDVWGAGTTVTVSS VL: DIVMTQSPSSLSVSAGEKVTMSCKSSQSLLSSGNQKNYLAWYQQKPGQPPKLLIYGASTRESGVPDRFTGSGSGTDFTLTISSVQAEDLAVYYCQNDHSYPYTFGGGTKLEIK									Kd (Human CD112R (PVRIG) [1]): 0.122 nM; Relative Kd (against VH0Vk0) (Human CD112R (PVRIG) [1]): 0.73
VH9K0 (antibody, V domains shown) VH: QVQLVQSGAEVKKPGSSVKVSCKASGYTFTSYWINWVKLAPGQGLEWIGDIYPGSYIPNYNEKFKNRATLTVDTSASTAYMELSSLRSEDTAVYYCAGGYFDVWGQGTTVTVSS VL: DIVMTQSPSSLSVSAGEKVTMSCKSSQSLLSSGNQKNYLAWYQQKPGQPPKLLIYGASTRESGVPDRFTGSGSGTDFTLTISSVQAEDLAVYYCQNDHSYPYTFGGGTKLEIK									Kd (Human CD112R (PVRIG) [3]): 0.0103 nM; Relative Kd (against VH0K0 N28T) (Human CD112R (PVRIG) [3]): 0.08; koff (Human CD112R (PVRIG) [3]): 3.09e-06 s⁻¹; kon (Human CD112R (PVRIG) [3]): 300000 M⁻¹ s⁻¹
VH10K0 (antibody, V domains shown) VH: QVQLVQSGAEVKKPGSSVKVSCKASGYTFTSYWINWVRQAPGQGLEWIGDIYPGSYIPNYNEKFKNRATLTVDTSASTAYMELSSLASEDTALYYCAGGYFDVWGQGTTVTVSS VL: DIVMTQSPSSLSVSAGEKVTMSCKSSQSLLSSGNQKNYLAWYQQKPGQPPKLLIYGASTRESGVPDRFTGSGSGTDFTLTISSVQAEDLAVYYCQNDHSYPYTFGGGTKLEIK					0.135	1.07	4.66e-05	345000	
VH9K2 (antibody, V domains shown) VH: QVQLVQSGAEVKKPGSSVKVSCKASGYTFTSYWINWVKLAPGQGLEWIGDIYPGSYIPNYNEKFKNRATLTVDTSASTAYMELSSLRSEDTAVYYCAGGYFDVWGQGTTVTVSS VL: DIVMTQSPDSLAVSLGERATINCKSSQSLLSSGNQKNYLAWYQQKPGQPPKLLIYGASTRESGVPDRFTGSGSGTDFTLTISSLQAEDVAVYYCQNDHSYPYTFGQGTKLEIK									Kd (Human CD112R (PVRIG) [3]): 0.0432 nM; Relative Kd (against VH0K0 N28T) (Human CD112R (PVRIG) [3]): 0.34; koff (Human CD112R (PVRIG) [3]): 1.3e-05 s⁻¹; kon (Human CD112R (PVRIG) [3]): 301000 M⁻¹ s⁻¹
VH0K3 N28T (antibody, V domains shown) VH: QVQLQQPGAELVKPGTSVKLSCKASGYTFTSYWINWVKLRPGQGLEWIGDIYPGSYIPNYNEKFKNKATLTVDTSSSTAYMQLTSLASEDSALYYCAGGYFDVWGAGTTVTVSS VL: DIVMTQSPDSLAVSLGERATINCKSSQSLLSSGNQKNYLAWYQQKPGQPPKLLIYGASTRESGVPDRFSGSGSGTDFTLTISSLQAEDVAVYYCQNDHSYPYTFGQGTKLEIK									Kd (Human CD112R (PVRIG) [3]): 0.0321 nM; Relative Kd (against VH0K0 N28T) (Human CD112R (PVRIG) [3]): 0.25; koff (Human CD112R (PVRIG) [3]): 1.06e-05 s⁻¹; kon (Human CD112R (PVRIG) [3]): 330000 M⁻¹ s⁻¹

Continued, in another order:

Kd (Human CD112R (PVRIG) [2]) [nM]	Relative Kd (against VH0K0) (Human CD112R (PVRIG) [2])	koff (Human CD112R (PVRIG) [2]) [s⁻¹]	kon (Human CD112R (PVRIG) [2]) [M⁻¹ s⁻¹]	Kd (Human CD112R (PVRIG) [4]) [nM]	Relative Kd (against VH0K0 N28T) (Human CD112R (PVRIG) [4])	koff (Human CD112R (PVRIG) [4]) [s⁻¹]	kon (Human CD112R (PVRIG) [4]) [M⁻¹ s⁻¹]	Binder	also measured
0.214	0.7	0.000133	623000					VH10K2 as tested in Table 4 (humanized scFv variant) (scFv, V domains shown) VH: QVQLVQSGAEVKKPGSSVKVSCKASGYTFTSYWINWVRQAPGQGLEWIGDIYPGSYIPNYNEKFKNRATLTVDTSASTAYMELSSLASEDTALYYCAGGYFDVWGQGTTVTVSS VL: DIVMTQSPDSLAVSLGERATINCKSSQSLLSSGNQKNYLAWYQQKPGQPPKLLIYGASTRESGVPDRFTGSGSGTDFTLTISSLQAEDVAVYYCQNDHSYPYTFGQGTKLEIK	
0.165	0.54	0.000101	630000					VH11K1 as tested in Table 4 (humanized scFv variant) (scFv, V domains shown, Format as for m33) VH: QVQLVQSGAEVKKPGSSVKVSCKASGYTFTSYWINWVRQAPGQGLEWIGDIYPGSYIPNYNEKFKNRATLTVDTSASTAYMELSSLRSEDTAVYYCAGGYFDVWGQGTTVTVSS VL: DIVMTQSPDSLSVSLGERATINCKSSQSLLSSGNQKNYLAWYQQKPGQPPKLLIYGASTRESGVPDRFTGSGSGTDFTLTISSLQAEDVAVYYCQNDHSYPYTFGQGTKLEIK	
0.197	0.64	0.000107	545000					VH10K3 as tested in Table 4 (humanized scFv variant) (scFv, V domains shown, Format as for m33) VH: QVQLVQSGAEVKKPGSSVKVSCKASGYTFTSYWINWVRQAPGQGLEWIGDIYPGSYIPNYNEKFKNRATLTVDTSASTAYMELSSLASEDTALYYCAGGYFDVWGQGTTVTVSS VL: DIVMTQSPDSLAVSLGERATINCKSSQSLLSSGNQKNYLAWYQQKPGQPPKLLIYGASTRESGVPDRFSGSGSGTDFTLTISSLQAEDVAVYYCQNDHSYPYTFGQGTKLEIK	
				0.119	0.94	4.18e-05	351000	VH10K1 (antibody, V domains shown) VH: QVQLVQSGAEVKKPGSSVKVSCKASGYTFTSYWINWVRQAPGQGLEWIGDIYPGSYIPNYNEKFKNRATLTVDTSASTAYMELSSLASEDTALYYCAGGYFDVWGQGTTVTVSS VL: DIVMTQSPDSLSVSLGERATINCKSSQSLLSSGNQKNYLAWYQQKPGQPPKLLIYGASTRESGVPDRFTGSGSGTDFTLTISSLQAEDVAVYYCQNDHSYPYTFGQGTKLEIK	
				0.101	0.8	3.19e-05	316000	VH11K0 (antibody, V domains shown) VH: QVQLVQSGAEVKKPGSSVKVSCKASGYTFTSYWINWVRQAPGQGLEWIGDIYPGSYIPNYNEKFKNRATLTVDTSASTAYMELSSLRSEDTAVYYCAGGYFDVWGQGTTVTVSS VL: DIVMTQSPSSLSVSAGEKVTMSCKSSQSLLSSGNQKNYLAWYQQKPGQPPKLLIYGASTRESGVPDRFTGSGSGTDFTLTISSVQAEDLAVYYCQNDHSYPYTFGGGTKLEIK	
0.19	0.62	0.000101	530000					VH11K3 as tested in Table 4 (humanized scFv variant) (scFv, V domains shown, Format as for m33) VH: QVQLVQSGAEVKKPGSSVKVSCKASGYTFTSYWINWVRQAPGQGLEWIGDIYPGSYIPNYNEKFKNRATLTVDTSASTAYMELSSLRSEDTAVYYCAGGYFDVWGQGTTVTVSS VL: DIVMTQSPDSLAVSLGERATINCKSSQSLLSSGNQKNYLAWYQQKPGQPPKLLIYGASTRESGVPDRFSGSGSGTDFTLTISSLQAEDVAVYYCQNDHSYPYTFGQGTKLEIK	
